Assays:
Experiment in all cases: native gel or EMSA
[1] = target: H3K23Cub nucleosome core particle (UniProt P68431)
[2] = target: H3K18Cub nucleosome core particle (UniProt P68431)
[3] = target: H3K18CubK23Cub nucleosome core particle (UniProt P68431)
[4] = target: unmodified nucleosome core particle (recombinant H3, H2A, H2B, H4 octamer on He601 DNA) (UniProt P68431)

Substance “N-terminal truncated mouse DNMT1 (residues 291–1620) (from UniProt P13864 291-1620) (enzyme)” has a Kd [1] of 136 nM, a percent of NCP shifted at 250 nM mDNMT1 [1] of 70% and a Kd [2] of 116 nM. For the same substance, the percent of NCP shifted at 250 nM mDNMT1 [2] was 70%, the Kd [3] was 13 nM and the Kd [4] was 193 nM.

Source: PMC10231317
